The record followed here is US20260308269 (published 2026).

One assay addresses T1, human CD98hc (human).
T1 chain: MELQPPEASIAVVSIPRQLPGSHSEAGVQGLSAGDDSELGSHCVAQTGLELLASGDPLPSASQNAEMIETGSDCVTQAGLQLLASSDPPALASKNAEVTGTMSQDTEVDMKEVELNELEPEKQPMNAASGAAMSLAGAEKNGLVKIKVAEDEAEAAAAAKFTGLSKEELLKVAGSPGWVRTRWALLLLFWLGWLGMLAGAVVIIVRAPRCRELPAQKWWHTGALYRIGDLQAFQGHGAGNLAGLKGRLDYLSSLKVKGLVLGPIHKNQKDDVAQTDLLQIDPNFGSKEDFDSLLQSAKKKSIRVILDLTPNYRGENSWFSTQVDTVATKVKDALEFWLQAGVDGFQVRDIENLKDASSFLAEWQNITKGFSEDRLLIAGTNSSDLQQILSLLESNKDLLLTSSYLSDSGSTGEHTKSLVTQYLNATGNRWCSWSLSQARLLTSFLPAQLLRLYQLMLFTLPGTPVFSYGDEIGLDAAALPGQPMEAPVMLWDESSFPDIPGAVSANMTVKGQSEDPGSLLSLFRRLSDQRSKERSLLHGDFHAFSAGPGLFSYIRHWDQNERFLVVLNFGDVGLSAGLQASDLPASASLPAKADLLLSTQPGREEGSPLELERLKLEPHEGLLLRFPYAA
The assay is described as follows: SPR.

The target in the next assay is T2, human TfR apical domain (human).
T2 chain: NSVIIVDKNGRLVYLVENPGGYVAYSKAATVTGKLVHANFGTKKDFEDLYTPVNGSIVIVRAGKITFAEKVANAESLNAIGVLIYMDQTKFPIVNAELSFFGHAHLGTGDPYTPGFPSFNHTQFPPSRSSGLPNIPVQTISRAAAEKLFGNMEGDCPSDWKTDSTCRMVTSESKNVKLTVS
The assay is described as follows: SPR. In general terms: SPR reads the build-up and loss of mass on a sensor chip optically.

B1: LLB1-3-16 (protein)
chain: APELLGGPSVFLFPPKPKDTLMISRTPEVTCVVVDVSHEDPEVKFNWYVDGVEVHNAKTKPREEQYNSTYRVVSVLTVLHQDWLNGKEYKCKVSNKALPAPIEKTISKAKGQPREPQVYTLPPSRDELTKNQVSLTCLVKGFYPSDIAVEWRTYKPYETNYKTTPPVLDSDGSFFLYSKLTVDKSRWQQGDIFVCDVLHEALHNHFTIKKLSLSPGK
For B1, in the assay with human CD98hc, the Kd (in general, the equilibrium constant for the complex coming apart) was found to be 0.032 µM. That is a double-digit nanomolar value.

B2: LLB1-3-16-2 (protein)
chain: APELLGGPSVFLFPPKPKDTLMISRTPEVTCVVVDVSHEDPEVKFNWYVDGVEVHNAKTKPREEQYNSTYRVVSVLTVLHQDWLNGKEYKCKVSNKALPAPIEKTISKAKGQPREPQVYTLPPSRDELTKNQVSLTCLVKGFYPSDIAVEWRTYKPYETNYKTTPPVLDSDGSFFLYSKLTVDKSRWQQGDIFVCDVMHEALHNHFTIKKLSLSPGK
B2 registered a Kd with human CD98hc of 0.175 µM.

B3: 35.d1.5 (protein)
chain: ASTKGPSVFPLAPSSKSTSGGTAALGCLVKDYFPEPVTVSWNSGALTSGVHTFPAVLQSSGLYSLSSVVTVPSSSLGTQTYICNVNHKPSNTKVDKKVEPKSCDKTHTCPPCPAPELLGGPSVFLFPPKPKDTLMISRTPEVTCVVVDVSHEDPEVKFNWYVDGVEVHNAKTKPREEQYNSTYRVVSVLTVLHQDWLNGKEYKCKVSNKALPAPIEKTISKAKGQPREPQVYTLPPSRDELTKNQVSLTCLVKGFYPSDIAVEWESYGNEWSSYKTTPPVLDSDGSFFLYSKLTVSKSEWQQGFVFSCSVMHEALHNHYTQKSLSLSPELQLEESCAEAQDGELDGLWTT
For B3, the affinity in the assay with human TfR apical domain, expressed as Kd, was 13.6 µM.

B4: 35.d1.2 (protein)
chain: ASTKGPSVFPLAPSSKSTSGGTAALGCLVKDYFPEPVTVSWNSGALTSGVHTFPAVLQSSGLYSLSSVVTVPSSSLGTQTYICNVNHKPSNTKVDKKVEPKSCDKTHTCPPCPAPELLGGPSVFLFPPKPKDTLMISRTPEVTCVVVDVSHEDPEVKFNWYVDGVEVHNAKTKPREEQYNSTYRVVSVLTVLHQDWLNGKEYKCKVSNKALPAPIEKTISKAKGQPREPQVYTLPPSRDELTKNQVSLTCLVKGFYPSDIAVEWESYGTEWTSYKTTPPVLDSDGSFFLYSKLTVTKSEWQQGFVFSCSVMHEALHNHYTQKSLSLSPELQLEESCAEAQDGELDGLWTT
In turn, B4 showed a Kd with human TfR apical domain of 4.3 µM.

B5: 35.d1.15 (protein)
chain: ASTKGPSVFPLAPSSKSTSGGTAALGCLVKDYFPEPVTVSWNSGALTSGVHTFPAVLQSSGLYSLSSVVTVPSSSLGTQTYICNVNHKPSNTKVDKKVEPKSCDKTHTCPPCPAPELLGGPSVFLFPPKPKDTLMISRTPEVTCVVVDVSHEDPEVKFNWYVDGVEVHNAKTKPREEQYNSTYRVVSVLTVLHQDWLNGKEYKCKVSNKALPAPIEKTISKAKGQPREPQVYTLPPSRDELTKNQVSLTCLVKGFYPSDIAVEWESYGTEWSNYKTTPPVLDSDGSFFLYSKLTVSKSEWQQGYVFSCSVMHEALHNHYTQKSLSLSPELQLEESCAEAQDGELDGLWTT
On to B5, for which the Kd with human TfR apical domain was found to be 3.6 µM. This Kd and that of the molecule before are within 1.5-fold of each other.

B6: 35.d1.6 (protein)
chain: ASTKGPSVFPLAPSSKSTSGGTAALGCLVKDYFPEPVTVSWNSGALTSGVHTFPAVLQSSGLYSLSSVVTVPSSSLGTQTYICNVNHKPSNTKVDKKVEPKSCDKTHTCPPCPAPELLGGPSVFLFPPKPKDTLMISRTPEVTCVVVDVSHEDPEVKFNWYVDGVEVHNAKTKPREEQYNSTYRVVSVLTVLHQDWLNGKEYKCKVSNKALPAPIEKTISKAKGQPREPQVYTLPPSRDELTKNQVSLTCLVKGFYPSDIAVEWESYGTEWTSYKTTPPVLDSDGSFFLYSKLTVSKSEWQQGFVFSCSVMHEALHNHYTQKSLSLSPELQLEESCAEAQDGELDGLWTT
The molecule B6 returned a Kd with human TfR apical domain of 11.2 µM. Against the preceding molecule, the Kd is about 3.1-fold higher.

B7: 35.d1.23 (protein)
chain: ASTKGPSVFPLAPSSKSTSGGTAALGCLVKDYFPEPVTVSWNSGALTSGVHTFPAVLQSSGLYSLSSVVTVPSSSLGTQTYICNVNHKPSNTKVDKKVEPKSCDKTHTCPPCPAPELLGGPSVFLFPPKPKDTLMISRTPEVTCVVVDVSHEDPEVKFNWYVDGVEVHNAKTKPREEQYNSTYRVVSVLTVLHQDWLNGKEYKCKVSNKALPAPIEKTISKAKGQPREPQVYTLPPSRDELTKNQVSLTCLVKGFYPSDIAVEWESYGTEWTNYKTTPPVLDSDGSFFLYSKLTVSKEEWQQGFVFSCSVMHEALHNHYTQKSLSLSPELQLEESCAEAQDGELDGLWTT
Consider B7, for which, in the assay with human TfR apical domain, the affinity, expressed as Kd, was 3.5 µM.

B8: 35.d1.1 (protein)
chain: ASTKGPSVFPLAPSSKSTSGGTAALGCLVKDYFPEPVTVSWNSGALTSGVHTFPAVLQSSGLYSLSSVVTVPSSSLGTQTYICNVNHKPSNTKVDKKVEPKSCDKTHTCPPCPAPELLGGPSVFLFPPKPKDTLMISRTPEVTCVVVDVSHEDPEVKFNWYVDGVEVHNAKTKPREEQYNSTYRVVSVLTVLHQDWLNGKEYKCKVSNKALPAPIEKTISKAKGQPREPQVYTLPPSRDELTKNQVSLTCLVKGFYPSDIAVEWESYGNEWSSYKTTPPVLDSDGSFFLYSKLTVTKSEWQQGFVFSCSVMHEALHNHYTQKSLSLSPELQLEESCAEAQDGELDGLWTT
In turn, B8 yielded a Kd in the assay with human TfR apical domain of 6.2 µM.

B9: 35.d1.3 (protein)
chain: ASTKGPSVFPLAPSSKSTSGGTAALGCLVKDYFPEPVTVSWNSGALTSGVHTFPAVLQSSGLYSLSSVVTVPSSSLGTQTYICNVNHKPSNTKVDKKVEPKSCDKTHTCPPCPAPELLGGPSVFLFPPKPKDTLMISRTPEVTCVVVDVSHEDPEVKFNWYVDGVEVHNAKTKPREEQYNSTYRVVSVLTVLHQDWLNGKEYKCKVSNKALPAPIEKTISKAKGQPREPQVYTLPPSRDELTKNQVSLTCLVKGFYPSDIAVEWESYGTEWSSYKTTPPVLDSDGSFFLYSKLTVTKSEWQQGYVFSCSVMHEALHNHYTQKSLSLSPELQLEESCAEAQDGELDGLWTT
In the assay with human TfR apical domain, B9 gave a Kd of 1.3 µM.

B10: 35.d1.16 (protein)
chain: ASTKGPSVFPLAPSSKSTSGGTAALGCLVKDYFPEPVTVSWNSGALTSGVHTFPAVLQSSGLYSLSSVVTVPSSSLGTQTYICNVNHKPSNTKVDKKVEPKSCDKTHTCPPCPAPELLGGPSVFLFPPKPKDTLMISRTPEVTCVVVDVSHEDPEVKFNWYVDGVEVHNAKTKPREEQYNSTYRVVSVLTVLHQDWLNGKEYKCKVSNKALPAPIEKTISKAKGQPREPQVYTLPPSRDELTKNQVSLTCLVKGFYPSDIAVEWESFGNEWSNYKTTPPVLDSDGSFFLYSKLTVSKSEWQQGFVFSCSVMHEALHNHYTQKSLSLSPELQLEESCAEAQDGELDGLWTT
In the assay with human TfR apical domain, B10 showed a Kd of 35.6 µM.

B11: LLB2-10-8-d6 (protein)
chain: APELLGGPSVFLFPPKPKDTLMISRTPEVTCVVVDVSHEDPEVKFNWYVDGVEVHNAKTKPREEQYNSTYRVVSVLTVLHQDWLNGKEYKCKVSNKALPAPIEKTISKAKGQPREPQVYTLPPSRDELTKNQVSLTCLVKGFYPSDIAVLWNSRFVLENNYKTTPPVLDSDGSFFLYSKLTVDKSRWQQGNVFACNVYHEALHNHYTFKNLALSPGK
Regarding B11, in the assay with human CD98hc, binding was put at a Kd of 0.55 µM.

B12: LLB2.10.8.10.3 (protein)
chain: APELLGGPSVFLFPPKPKDTLMISRTPEVTCVVVDVSHEDPEVKFNWYVDGVEVHNAKTKPREEQYNSTYRVVSVLTVLHQDWLNGKEYKCKVSNKALPAPIEKTISKAKGQPREPQVYTLPPSRDELTKNQVSLTCLVKGFYPSDIAVLWNSRFVLENNYKTTPPVLDSDGSFFLYSKLTVDKSRWQQGEIFACNVYHEALHNHYTFKNLRLSPGK
Turning to B12, binding with human CD98hc was put at a Kd of 0.043 µM.
